Test results from the DeepSol protein solubility set.

Experiment: soluble on expression in E. coli; label from the status in PepcDB or PDB records

Question: Which “soluble on expression in E. coli” value does the source give for “MTGNSFNSMKDFLKQTGGYAVIDGGLATEFERHGADLNDPLWSAKCLVTSPHLIHTVHLDYLEAGADIISSASYQATIQGFEAKGFSREESESLLKKSVEIATEARNSYYDKCGTSSSMDDKILKKRPILVAASVGSYGAYLADGSEYSGIYGDSITLEKLKDFHRRRLQVLAESGADLIAFETIPNKIEAQAFADLLEEGDVKIPGWFSFNSKDGVNVVSGDSIKECISIAENCEKVVAVGINCTPPRFIEGLVLEIEKVTSKPILVYPNSGESYDADRKEWVENTGVGDEDFVSYVEKWMDAGVSLLGGCCRTTPTTIRAIHKRLVNRRSL” here?
Answer: The value was “soluble”.

Question: For “MTGTVYKLFGNRLLNARNQLDKNLLEMAMQMVYGKDMVTKSGDILIDIQLNKDGSLQSKHYTLDVGEVINSYNIDPLCECFKY”, which “soluble on expression in E. coli” value is on record?
Answer: The value was “not soluble”.

Question: Which “soluble on expression in E. coli” value does the source give for “MTGVVTASKGLNVRKEANTSSQIIGILNSGESVEIIGEENGFYKITYKGQEAYASKNYINIFDGNSLEHHHHHH” here?
Answer: Its value is “not soluble”.

Question: With “MTIAIVIGTHGWAAEQLLKTAEMLLGEQENVGWIDFVPGENAETLIEKYNAQLAKLDTTKGVLFLVDTWGGSPFNAASRIVVDKEHYEVIAGVNIPMLVETLMARDDDPSFDELVALAVETGREGVKALKAKPFAG” as the sequence, how does the “soluble on expression in E. coli” value read?
Answer: The value was “soluble”.

Question: With “MTIAVDFDGTIVEHRYPRIGEEIPFAVETLKLLQQEKHRLILWSVREGELLDEAIEWCRARGLEFYAANKDYPEEERDHQGFSRKLKADLFIDDRNVGGIPDWGIIYEMIKEKKTFADIYSQQREENTSQKKKRKWLPF” as the sequence, how does the “soluble on expression in E. coli” value read?
Answer: The value was “soluble”.

Question: With “MTIDNYDNSKQDSSKYEVSGTGDGRNGDGGLPLVQCVARARIPTTQGPDIFLHLYSNNRDNKEHLAIVFGEDIRSRSLFRRRQCETQQDRMIRGAYIGKLYPGRTVADEDDRLGLALEFDDSTGELLASKATTWDAHNDTLVRIHSECYTGENAWSARCDCGEQFDRAGRLIACDHEPTSNIKGGNGHGVIVYLRQEGRGIGLGEKLKAYNLQDLGADTVQANLMLKHPVDARDFSLGKAILLDLGIGNVRLLTNNPEKIKQVDHAPYLKCVERVPMVPIHWTNSSEGIDSKEIEGYLRTKIERMGHLLTEPLKLHTNPQPTETSEAQNQNRMNSALSSTSTLAI” as the sequence, how does the “soluble on expression in E. coli” value read?
Answer: The value was “soluble”.

Question: Which “soluble on expression in E. coli” value does the source give for “MTIEGGEQEVNVSSGGAWQSSIHCDWMTLSPSSGGIGITKVRIKVKKNTSGLPRNGRIAIISGKEEKGITVMQSSIEGEEDYLRLLNLTIDGVTTAVDYVNNSYYLPIDMDAVQPAKVKVEFGGIGVDFIKIGDKKIKSGENIALSLNPGQNIEMEAGNNTIDKIRSCRLIVTGVPVIEISAPEGIEDENKRPCDIVLTDPKRRTNNSVLRFESYAGIEFRGAGALRYAKKSFSFKLKNRQTNENQDAKLLGLREDQSWILDAMWLDCSKMRNRVCFDLWNDFNTLYYSNTEPEAVNATHGYPVEMILDGAYHGLYILSDRIDRKQLKMKKKGGYLYKGKEWTDECKLQGINTPYSNSKQAWQGFESDYPDEVGEIEFKYLSDLIQFFAAASKEEFAAQYEERLDVSSLIDYFIFINLLSAYDNTGRNVFWGIYNVNLTLLPKFIIQPWDLDGTLGRTWDAIKLDPEKGLGFDNGLILRNDAGSKYFRPFERIMNENPNNIKRRIYERLMAVKDNVLSPANLASKVDYYKRQIVESGALERDRQRWTGYSMYGYANPEEEAEYIKSWYIARLKYLETIFNNF” here?
Answer: Its value is “not soluble”.

Question: For “MTIFRPGLLTTIQDLGRTGYLKYGVIVSGPMDEYAHRMANLLVGNDEKAALLEMTFIGPTIQFTSDQLIAMTGGDLSPTIDGHSVPMYRPVFVKKGAVLSFGRCKTGCRSYLAIGGGIDVPKVMNSRSTYLRAKIGGFQGRALVEGDELICGAPPEQTERLVKTCQKGIVHSFATTKWSVVSSQRSRDGAEKVVRVTVGSHYEQFSEASQHKFFSETFQVTSKSDRMGYRLKGPTLERLEEQELISEPISVGTIQVPADGNPIILMADRQTTGGYPRIAHVIAVDLPIIAQAKPGAAIRFQQASLKEAERLYIRRAREFNELKTSIYLQTRLEHHHHHH”, which “soluble on expression in E. coli” value is on record?
Answer: The value was “not soluble”.

Question: With “MTIKIALLGFGTVAKGIPYLLKENQHKLLSLEGEDIVIDKVLVRDNESRQRFINQGFTYNFVTEINTILQDSQIDIVVELMGGIEPAKTYLSQALGFGKHIVTANKDLIALHGKELMDLADARGLALFYEGAVAGGIPILRTLSHSFASDKMTRLLGILNGTSNFMLTKMFEEGWSYEQALKKAQELGYAESDPTNDVEGIDTAYKATILSQFGFGMPIDFDDVNYKGISSIRSEDVEVAQEMGFAIKLVADLRETPTGISVDVSPTLISQKHPLAAVNHVMNAVFIESIGIGQSLFYGPGAGQNPTATSVLADIIDISRSIRSQIKIKPMNTYHCPCRLSMQSDIFNEYYLAISLRNAEDSDTLGRYFEQENIGLKNVIEKALGDKQQEIYVLTDEVSQEKITQFIEEFPESGVIQLINVFKVIGGLEHHHHHH” as the sequence, how does the “soluble on expression in E. coli” value read?
Answer: Its value is “soluble”.

Question: With “MTIKKSQIEKWIAAQKRHRLSDTHVQMARELGLNPDKLGKIDNHRQEPWKAPLPEFIEEIFYKRFKKERPDVVKPLKQILKEQEIKTKTKKKEKEIRRKEREQEQINNGTDEVLTFQSPTPITE” as the sequence, how does the “soluble on expression in E. coli” value read?
Answer: Its value is “not soluble”.

Question: Which “soluble on expression in E. coli” value does the source give for “MTIKLVATDMDGTFLDGNGRFDMDRLKSLLVSYKEKGIYFAVASGRGFLSLEKLFAGVRDDIIFIAENGSLVEYQGQDLYEATMSRDFYLATFEKLKTSPYVDINKLLLTGKKGSYVLDTVDETYLKVSQHYNENIQKVASLEDITDDIFKFTTNFTEETLEDGEAWVNENVPGVKAMTTGFESIDIVLDYVDKGVAIVELVKKLGITMDQVMAFGDNLNDLHMMQVVGHPVAPENARPEILELAKTVIGHHKERSVIAYMEGL” here?
Answer: Its value is “not soluble”.

Question: Which “soluble on expression in E. coli” value does the source give for “MTIPLHTITSFRATFNPFSRSARPCRLLLSLLRNPSTTPASSPTHIDIQVTQLPRHSTQPPEMTVGFRGGKEVKIEVGKKQMKIGDVIEELARVGRSIEREETLKG” here?
Answer: Its value is “not soluble”.

Question: Which “soluble on expression in E. coli” value does the source give for “MTIREEGLIVKDQVLSCYLKGKRCLFVIVKILKDSSNSFLCTVQNKNGDQYVKKWFRKHENNEKLGRPTFKEVEKDWKENKESFMYPNVKALY” here?
Answer: Its value is “not soluble”.

Question: For “MTISRRSLLEGLLGAAAGLALLPVLGGRAGAALPREAEVVVVGAGAAGIAAARRIVAAGRKVIVVEAASEIGGRCVTDTTSFAAPFDRGARWLHNPDSNPLVRLARSSGFAVTPVAPGQKVRIGRRNARSRETEDFLAAFVRASRAISDASRGKSDISCAAALPNDLGDWAATIEYVLGPATTSKDLRALSAMDAVRTLDRTALLGCPQGVGSLLTQLASSLPIALSTPVKRIVWSGRDLAVETTAGRIGARAIIVTASTNVLTSGNLGFSPELPKRQLDAAARLSLGSIDRIALQFKGNPLGLSRDETIIERADDIRTATLVGNIGGTSLCTVDVAGSFGRQLAAQGEAAMQDFAIEWLGKLFGSDIAGAVERKAVTRWNEMPYVLGAMSAAEPGGQPSRKVLGEPLGNLFFAGEATHETLFGTVQGAWESGERAADAALKKIGAVKEPAPEKPVRKQKPRREPQRQREQRPPATASGTPSWWRLEHHHHHH”, which “soluble on expression in E. coli” value is on record?
Answer: Its value is “not soluble”.

Question: With “MTITRQDAWTQDEDLLLAEVVLRHIREGGTQLSAFEEVGRALTRTAAACGFRWNSYVRKQYQSGIELAKKQRKELRKQIGVHSVNMPNSMKQTASASSEGKRDLSIQDVIQFLEQFKETPSAQEFQLEREKLKEQIQSLQKELEDLRSENQTLRNQLEMTEEDYKALIDIMDRARKMVVSKEDGRMKKAAQETLEHHHHHH” as the sequence, how does the “soluble on expression in E. coli” value read?
Answer: The value was “not soluble”.

Question: For “MTKENICIVFGGKSAEHEVSILTAQNVLNAIDKDKYHVDIIYITNDGDWRKQNNITAEIKSTDELHLENGEALEISQLLKESSSGQPYDAVFPLLHGPNGEDGTIQGLFEVLDVPYVGNGVLSAASSMDKLVMKQLFEHRGLPQLPYISFLRSEYEKYEHNILKLVNDKLNYPVFVKPANLGSSVGISKCNNEAELKEGIKEAFQFDRKLVIEQGVNAREIEVAVLGNDYPEATWPGEVVKDVAFYDYKSKYKDGKVQLQIPADLDEDVQLTLRNMALEAFKATDCSGLVRADFFVTEDNQIYINETNAMPGFTAFSMYPKLWENMGLSYPELITKLIELAKERHQDKQKNKYKIDRSHHHHHH”, which “soluble on expression in E. coli” value is on record?
Answer: Its value is “soluble”.

Question: Which “soluble on expression in E. coli” value does the source give for “MTKETYPKATVLDISASVEYSDGGIISKQVLKNEVGNITLFSFDQGQGLSEHTAPFDAFVQILEGEAEIRIGGQPLLLKAGRSVIMPANVSHALHATKRFKMLLTMIRG” here?
Answer: The value was “not soluble”.

Question: Which “soluble on expression in E. coli” value does the source give for “MTKKKAKKNQKTGAAAAPPHESQKKEKENDFEMLEDIKRDEDLFFSETDISNISNFIRTTNKSFNSLGNTFVEQFTNRCSLAIFQALATCFEIHSEERDDVIRRLNIIYIVWRLPDLEPELRPKPPKNLSDVYSHPYATFLFAAEQIEHRIEAMLARIIVSNNINQVEKLTAPDFIQKAAAGGLTVVVEGIDRTGFVDWCEANTDHWPEVHDSVVPLPKAMRELGCERKDYESGMAEAFYPIMHNAPTQLPPRMEALEQEDPIIREWRLKVDPENTSATPVIYSMCSGDKMQEELMQAFDELEPTIAEYQSDLIAGMTAPELEELNKQIDCDDQMSQSSDSAPPSEVSSDLELDTALDIRDGMTMPLVDLKDEVIEGCVDRILDGTTLTTSKSDMMIQFVRTALITHPQYDRLLQASVLDENIISFIRTNVKFAGAFLVRNALSEQDTCLLFKRYMRLCEGVNSTVHSLETVLKLSKEFIEHDKLTQEHREVVLAFVRHTIRTCEGDRTVRLVAMLVKKLLRERVLNVEDIAADVKPFTLKYTDNRECTALYQSMINMQNGGGGGGQENMTTSTTTTTTTTKSSSPNSLSTTTTTTSHNPGASATTTTTTVVKTCGPATFKQTSRKVVLQFKNPSQNAHF” here?
Answer: The value was “not soluble”.

Question: With “MTKLEQIQQWTAQHHASMTYLSNPKTIEYLTGFGSDPIERVLALVVFPDQDPFIFAPALEVEVIKETGWQFPVIGYLDHENPWAMIADQVKQRHVNPEHVAIEKGQLQVARMEALAAQFSAPSFDLDITSFIEHMR” as the sequence, how does the “soluble on expression in E. coli” value read?
Answer: Its value is “soluble”.

Question: With “MTKLVLTPADTFFFKNHHATQAGETTVMESMFPPRPNTIYGALRAAYIYAYSSFDEFARGADERVKLWMGTPDERGAFRLHYCALADGDSLFLPLPLDYQVVEEGDSLKAYPLQLAKDRKPSSASTMWRLASSRREKTKSSQHRYVSLSEWKKALLLNQPIASLRTLSSFIVQEEKVGIQLDVSRRTAQEGFLYRVGKHRFLGDSSLVAYIDDGPDFSNVKWARIGGENRPWFIRQHPEEFRLWNDDEKRRIEQDIQRTKMAKIIFLSPAIFANGSRPAAMEGDRWTWPNGAVVTWLAAAIGRPELYGGWDIVRHRPKPRKWMIPAGSVIYVKIERDDDLRLVFSALDGIHLTDEGAEEGFGFAVLASVHESEEEL” as the sequence, how does the “soluble on expression in E. coli” value read?
Answer: The value was “not soluble”.

Question: With “MTKPRYNDVLFDDDDSVPSESVTRKSQRRKATSPGESRESSKDRLLILPSMGESYTEYVDSYLNLELLERGERETPIFLESLTRQLTQKIYELIKTKSLTADTLQQISDKYDGVVAENKLLFLQRQYYVDDEGNVRDGRNNDKIYCEPKHVYDMVMATHLMNKHLRGKTLHSFLFSHFANISHAIIDWVQQFCSKCNKKGKIKPLKEYKR” as the sequence, how does the “soluble on expression in E. coli” value read?
Answer: The value was “not soluble”.

Question: For “MTKQAEETQKPIIFAPETYQYDKFTLNEKQLTDDPIDLFTKWFNEAKEDPRETLPEAITFSSAELPSGRVSSRILLFKELDHRGFTIYSNWGTSRKAHDIATNPNAAIVFFWKDLQRQVRVEGITEHVNRETSERYFKTRPRGSKIGAWASRQSDVIKNREELDELTQKNTERFKDAEDIPCPDYWGGLRIVPLEIEFWQGRPSRLHDRFVYRRKTENDPWKVVRLAP”, which “soluble on expression in E. coli” value is on record?
Answer: Its value is “soluble”.

Question: With “MTKRIEIKPATAADQAALAEIYLVDRQQDFPWVTDPQLQDFNEDSRGEFVLVAWIDGQRAGFCSLYRLANFIHLLFVAPDFRHLKVGERLLTEMRQYATEPLTLKCVMANENALRFYAQVGFRIVK” as the sequence, how does the “soluble on expression in E. coli” value read?
Answer: The value was “not soluble”.
